Reference: US20240124563A1

Legend:
[1] = biological target: human MSLN protein endogenously expressed on tumor cells (Hela, OVCAR3) (human) (UniProt Q13421); experiment: FACS, OVCAR3 cells
[2] = biological target: human MSLN full-length protein on transfected cells (CHO-K1-hMSLN clones 2C8, 2D11, 2C5; HEK293T-hMSLN clones B8, 2A4, 2A7) (human) (UniProt Q13421); experiment: FACS, CHO-K1-hMSLN-2C8 cells, antibody 4 nM
[3] = biological target: human MSLN full-length protein on transfected cells (CHO-K1-hMSLN clones 2C8, 2D11, 2C5; HEK293T-hMSLN clones B8, 2A4, 2A7) (human) (UniProt Q13421); experiment: FACS, CHO-K1-hMSLN-2C8 cells, antibody 0.0064 nM
[4] = biological target: monkey MSLN full-length protein on HEK293T cells (monkey); experiment: FACS, HEK293T-monkey-MSLN cells, antibody 0.8 nM
[5] = biological target: human MSLN full-length protein, recombinant, on CHO-K1 or HEK293T cells (human) (UniProt Q13421); experiment: competitive FACS on CHO-K1-human MSLN-2C8 cells vs Biotin-Tab142; competitor at 4 nM
[6] = biological target: human MSLN full-length protein, recombinant, on CHO-K1 or HEK293T cells (human) (UniProt Q13421); experiment: competitive FACS on CHO-K1-human MSLN-2C8 cells vs Biotin-Tab142; competitor at 0.16 nM
[7] = biological target: human MSLN full-length protein, recombinant, on CHO-K1 or HEK293T cells (human) (UniProt Q13421); experiment: competitive FACS on CHO-K1-human MSLN-2C8 cells vs Biotin-Tab131; competitor at 0.32 nM

Chain of human MSLN full-length protein, recombinant, on CHO-K1 or HEK293T cells (human) (Q13421 other isoform, or with tags, fused parts or gaps limits assumed): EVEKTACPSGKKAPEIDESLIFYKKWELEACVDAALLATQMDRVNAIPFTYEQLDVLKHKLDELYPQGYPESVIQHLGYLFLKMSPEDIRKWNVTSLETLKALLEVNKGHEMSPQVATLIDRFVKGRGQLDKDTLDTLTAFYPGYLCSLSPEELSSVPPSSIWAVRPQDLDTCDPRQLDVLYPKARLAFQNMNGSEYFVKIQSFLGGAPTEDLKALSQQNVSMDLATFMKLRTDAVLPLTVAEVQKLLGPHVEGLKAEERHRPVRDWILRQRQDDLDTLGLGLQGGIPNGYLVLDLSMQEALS
Chain of human MSLN full-length protein on transfected cells (CHO-K1-hMSLN clones 2C8, 2D11, 2C5; HEK293T-hMSLN clones B8, 2A4, 2A7) (human) (Q13421 other isoform, or with tags, fused parts or gaps limits assumed): as above
Chain of human MSLN protein endogenously expressed on tumor cells (Hela, OVCAR3) (human) (Q13421 other isoform, or with tags, fused parts or gaps): as the sequence (Q13421 other isoform, or with tags, fused parts or gaps limits assumed) above, with P14R counted along it

Max MFI [1]: 147 | FACS signal (MFI) [2]: 110 | FACS signal (MFI) [3]: 65 | FACS signal (MFI) [4]: 87 | MFI of Biotin-Tab142 [5]: 43100 | MFI of Biotin-Tab142 [6]: 43600 | MFI of Biotin-Tab131 [7]: 12700
Substance: hIgG1 (antibody)
